# Source: the DeepSol protein solubility set
# Assay: soluble on expression in E. coli; label from the status in PepcDB or PDB records
row,Sequence,soluble on expression in E. coli
1,MMRKVALFGFSLLLLAGCSSSDSSLPLFSSLPKGVTLVEEVKAEPGKVMIPYSKYRLDNGLTVILSPDDSDPLVHVDVTYHVGSAREEIGKSGFAHFFEHMMFQGSKHVGDQQHFRLITEAGGSLNGTTNRDRTNYFETVPANQLEKMLWLEADRMGFLLDAVSQRKFEIQRDTVKNERAQNYDNRPYGLMWEKMGEALYPEGHPYSWQTIGYVSDLDRVDVNDLKAFFLRWYGPNNAVLTIGGDLDVKQTLAWVQKYFGSIPKGPDVVDAPKQPARLSEDRFITLEDRVQQPMLLIGWPTQYWGAEDQVALDALASALGSGNNSLLYQELVKTQKAVDAGAFQDCAELACTFYVYAMAPSGAKGKLAPLYQETLQVLEKFKQQGVSASRLEQIIGSEEASAVFALESVKGKVSQLAANQTFFDQPDRIESQLEKIRAVTPESVKQVFTRYLDGQPKVTLSVVAKGKTDFAVRPATFITPERQLPEYQKIGDEQLAYREVKDSFDRSQMPQVAQAVQPRLPKLYDVYFDNGVQLLGTQTRETPTVLIEIQLPAGERQVAMGKEGLANLTASLLQEGSQNRSAEAIQAQLDKLGSSIQVVAGAYSTSIVVSSLKKNLPETLQISQEMLLKPAFKQSDFARLQQQMLQGVVYQHQQPSWLASQATRQVLWGESLFARSGDGTQASISALTLKDVKQFYRQHYTPHGAQIAVVGDISAREIRQQLQFIADWKGEAAPLINPQVVPTLTKQKIYLVDKPGAPQSIIRMVRKGLPFDATGELYLTQLANFNLAGNFNSRINQNLREDKGYTYGAGSYFASNREIGAIVFNAPVRADVTVEAIQEMIKEMHHFSQAGMSEEEMKFLRLAVGQQDALMYETPAQKAQLVSSILTYSLDRDYLQQRNEIVKSVDRSTLNELAAKWFNPEDYQIIVVGDAKRLKPQLEKLGIPLEELEIIR,not soluble
2,MAAHQLSDFQRNKILRVFNTFYDCNHDGVIEWDDFELAIKKICNLHSWPTDGKKHNEARATLKLIWDGLRKYADENEDEQVTKEEWLKMWAECVKSVEKGESLPEWLTKYMNFMFDVNDTSGDNIIDKHEYSTVYMSYGIPKSDCDAAFDTLSDGGKTMVTREIFARLWTEYFVSNDRGAKGNHLFGTLKL,soluble
3,MGKNLSLRQDDAQHALSANTSSAYNSVYDFLRYHDRGDGLTVNGKTSYSIDQAAAQITRENVSWNGTNVFGKSANLTFKFLQSVSSIPSGDTGFVKFNAEQIEQAKLSLQSWSDVANLTFTEVTGNKSANITFGNYTRDASGNLDYGTQAYAYYPGNYQGAGSSWYNYNQSNIRNPGSEEYGRQTFTHEIGHALGLAHPGEYNAGEGDPSYNDAVYAEDSYQFSIMSFWGENETGADYNGHYGGAPMIDDIAAIQRLYGANMTTRTGDSVYGFNSNTDRDFYTATDSSKALIFSVWDAGGTDTFDFSGYSNNQRINLNEGSFSDVGGLKGNVSIAHGVTIENAIGGSGNDILVGNSADNILQGGAGNDVLYGGAGADTLYGGAGRDTFVYGSGQDSTVAAYDWIADFQKGIDKIDLSAFRNEGQLSFVQDQFTGKGQEVMLQWDAANSITNLWLHEAGHSSVDFLVRIVGQAAQSDIIV,soluble
4,MGSDKIHHHHHHMAEKTIVEKLQLTKYKEAVILNQPNGADYFQNLANYEEKLADKQYDLIFDFVETLEELITFVQKVIAENKLAANGYLFFAYPKKGNKKFATYVHRDELMPALKTDEEGYVDGSTLKFTRMVALDETYTVVGLKEAAKLKAKGVKKNNPSADEYADHVPLVAEFLADKGDLQAFYNNLATGYQRVWARYIYSAKQPATQEKRRLEMVDILSQGYKTKDLYRQGKK,not soluble
5,VKPKGAFKAFTGEGQKLGSTAPQVLNTSSPAQQAENEAKASSSILINEAEPTTNIQIRLADGGRLVQKFNHSHRISDIRLFIVDARPAMAATSFVLMTTFPNKELADENQTLKEANLLNAVIVQRLT,soluble
6,MGSDKIHHHHHHMGKVADTLKPGDRVLLSFEDESEFLVDLEKDKKLHTHLGIIDLNEVFEKGPGEIIRTSAGKKGYILIPSLIDEIMNMKRRTQIVYPKDSSFIAMMLDVKEGDRIIDTGVGSGAMCAVLARAVGSSGKVFAYEKREEFAKLAESNLTKWGLIERVTIKVRDISEGFDEKDVDALFLDVPDPWNYIDKCWEALKGGGRFATVCPTTNQVQETLKKLQELPFIRIEVWESLFRPYKPVPERLRPVDRMVAHTAYMIFATKVCRREETE,not soluble
7,MGSDKIHHHHHHMDSKSNSELARLEQAARAAWLYYVAKNTQDEIAQKLEVSRQSAQRLVALAVSEGLIKVRLDHPIVKCMELGQQLTQAFNLLECEIVPSDPADDSSVHGLAQCGAGVLERYLKSEQPKTLAFGTGRALKACIDELPSMQCPQHKIVSLLGNMMLDGSASAFDIVVSMANRVQAKHYPMPLPVIATSVAEKQLLHDLAPVKSIFELVIQADATFVGIGHMGAESPLLLDGFINQSQLTELINDNATGEIISWVYNQQGQLLDHSINELVMSSPLRIDSNKPVYGIAAGQHKVDAIFSALQGRLINSLITNEYTAERILAKLK,not soluble
8,MSTPTLSPSTEKLIPIIGLSVSGTFSPRPIATTAHSVVFKVDSQLYRREVIVKIVDRKSIPANVAEKFFPRELEITMKVRHPHIARCLAITRPAPTKFVIISDYYERGTLLEWILQKKRLKEHPLAATLFRQLIEAINYLHKRGIVHRDVKLENILIDGNGDIKLIDFGFARHIERRERSRSFCGTQPYTCPQITKYRPYEAYAADYYACGIVLFTMVTGKWPNMTENPNIYPEGYPSRSCRKLVSSLLDGNEMSRAGYDECVNSEWMGVHPVWMFANHAYFYEEVRGEDPNSSNCEMSEI,not soluble
9,MHDEQFCVGYNFLEAEDTFREDGLEPVTLAIHGTPEVLQLLGNKPLNWDGPISFGLFVDFHSQKALNYISMLHKCDAAFKRQMTVHFAFRISPSQSECPMIQVLGYQDCATFLQKSKQLLEEIEDSFQIYPINLMRNIARRGAKSDLHLIIDTDMMMSTNFAKMVKPIANRMIDGKNKQVLVVRRFETNENELPMSFGDLEEGIENHKTFQFHHKFFFVGHQIPNLMEWFERSHASNDVVAWEIPYTGNDWEVQIILHRNDPYNVEYFPSRVKDMQSLIYKLCRANYTFNLLSHVFNVHKGIKEDDTMYSKVVTAHTKRQGRLRTLSRYVTEIDRKYPDTMKRCGQFLL,not soluble
10,MKQWIAALLLMLIPGVQAAKPQKVTLMVDDVPVAQVLQALAEQEKLNLVVSPDVSGTVSLHLTDVPWKQALQTVVKSAGLITRQEGNILSVHSIAWQNDNIARQEAEQARAQANLPLENRSITLQYADAGELAKAGEKLLSAKGSMTVDKRTNRLLLRDNKTALSALEQWVAQMDLPVGQVELSAHIVTINEKSLRELGVKWTLADAQHAGGVGQVTTLGSDLSVATATTHVGFNIGRINGRLLDLELSALEQKQQLDIIASPRLLASHLQPASIKQESEIPYQVSSGESGATSVEFKEAVLGMEVTPTVLQKGRIRLKLHISQNVPGQVLQQADGEVLAIDKQEIETQVEVKSGETLALGGIFTRKNKSGQDSVPLLGDIPWFGQLFRHDGKEDERRELVVFITPRLVSSELEHHHHHH,not soluble
11,MTYELCLEYGTYPLSRVDAYWGEDQNPPTFIQEDRLLCHKLETMNHLFHDLFVTIESQFHYVGFNMPEKRAQIRILYQEVATILKSKYKDYPIKIETFLL,not soluble
12,MGSDKIHHHHHHMSNQPHKPYGTPEPTYSGNKRSLILAGGGMRVAYQAGAIRALIESGLCFNHADGTSGGTMNLAMLLSGLSPIEMCDRWQTLNVKDFVSFIPLEKYLKAWDLLSMGDADGIIDRVFPHLGIDISKINASEGMQGTFNVCNFTHKTNEVIPHDRLDLDLLVAGISLPIFMPPVQKGDYLYMDSVWIKDVNLMEAVRRGADELWVLWCIGNSSEYQTGIFNQYVHMMELSANGAFFEECDRINEINQRILQGETVYGHTQPIKLHLIKPAYPLPLDPDYYLGNIDGATLVDMGYADAKQYLQTMSPAGLPFQPDVTRMHNNLPGMTFRESMAGAFVLNETDPIQGAAKGKAHNSSLSLQLTINICDLKRFLGDTTFTASIAGNISFANFGEHIPFKRGVFNLFAHDHNPGYKYITYELAFEHGNQDYYLVGKKELHNDPGFDLWQDMTTIYTYLHQGTDNNSPIIGSGILTLDVGDVAKCVSGWRITNAKSLTEKTTLLAEFGSFFWGNIWETYQP,not soluble
13,SAPAAALKKAAEAAEPATVTEDATDLQNEVDQELLKDMYGKEHVNIVFIGHVDAGKSTLGGNILFLTGMVDKRTMEKIEREAKEAGKESWYLSWALDSTSEEREKGKTVEVGRAYFETEHRRFSLLDAPGHKGYVTNMINGASQADIGVLVISARRGEFEAGFERGGQTREHAVLARTQGINHLVVVINKMDEPSVQWSEERYKECVDKLSMFLRRVAGYNSKTDVKYMPVSAYTGQNVKDRVDSSVCPWYQGPSLLEYLDSMTHLERKVNAPFIMPIASKYKDLGTILEGKIEAGSIKKNSNVLVMPINQTLEVTAIYDEADEEISSSICGDQVRLRVRGDDSDVQTGYVLTSTKNPVHATTRFIAQIAILELPSILTTGYSCVMHIHTAVEEVSFAKLLHKLDKTNRKSKKPPMFATKGMKIIAELETQTPVCMERFEDYQYMGRFTLRDQGTTVAVGKVVKILD,soluble
14,SKHKQSSFTKSCYPRGTLSQAVDALYIKAAWLKATIPEDRIKNIRLLKKKTKKQFMKNCQFQEQLLSFFMEDVFGQLQLQGCKKIRFVEDFHSLRQKLSHCISCASSAREMKSITRMKRIFYRIGNKGIYKAISELDILLSWIKKLLESSQ,soluble
15,MGSDKIHHHHHHMDKKTYKLLRTLTHLSKDLYNLTLYTVKQHYELNGTFLPFVKAYHMVKDSEPYKLLPSQVAQQTMKIVERNFRSFFHVLKERKKGNYNRPVRPPKYLPKNGHFILIFPYQSFRVKEDRIILTLGKNFAEKYGVKHLEIPLPKNVKGHRIKEIRILPRYNALWFEVEYVYEVLPEERDLDRSKYLAIDLGLDNFATCVSTTGTAFIIEGRGLKSFNRWWNKEKAKLQSQYDKQGVKFGKRMVWLLKKRKNVVNDFMNKAVSYIVNYCLENGIGNVVIGELKGVKQNTDLGRRNNQNFHYIPYGLFKQKLKAKCERYGINYIEVDEAYTSKVDALTLEPIEKREKYLGKRGETWTVPVFRWCFNKC,not soluble
16,MGSDKIHHHHHHMPGASPWRALVGGVKGQPQGTGMDRIGPAERPILSEGAKRVTADLLQTINTIYDCVGDELDHHRCLAAIGEAVDGTSLSVGEVFPFFGRIRLIANYCVPEDAARIMVDSFSTIESNSFMKNLPRFPEGVPFMRRTFVSDEEHYQSDIYKLASEPWGLHSEGATIFSKSIVSAKFCGFFRLPGKAELDIHDLSKLAILNGHYMKAMKFQDRISGLETALLRANNVLDLLDFGLLLFGDQKSPLYVNQAAHRILEKSDVMSLGRDGLIFSSSKSQNHYEKIFSSVVGSRSSPTKGTGGLVQVSPASFRRPYNVVVQPISSHQTGVADATIGVLIFDPNAKRTTAIELFSTSYGLTKKETQLALHLAEGLSVDEYAKSHNVSINTVRTHVRSIYEKTNTTRQPELVSLILRLTAGLNWT,not soluble
17,MSWFLLNRNLTLLEPYDWKLSRTVLRGERGSNASDLPGKAIAKEGMADYIRYLFKTVRKFYGEAVVVTQEVDDIISSPIVKESIVNNSDCKILLDQRKYLNKFSQIQSLLGLTDKEKAQILSVNMSNDPRRKYKEVWFGLGGVQSTVYATEVSLEEYLCYSTEESEKVELEGLTKELGGNIELAIRRLAEKKRNQNNEIP,not soluble
18,MGSDKIHHHHHHMMGGEFTLTEREAEYLFRIIDSSINIFRRHQFFLWAQGELQGLLPHGMLICLFDEGNGQAVNIERFSRTDMDEIRFSELCRPDGGIVFRAMSAWSAGKNQPLLVCPNNSHTPTYKRFSNDLKRENLQRIAAHGMFDTNGRTTCFFTFTQISAALSERHAYFLELLMPHMHMALVRMLFHERHHKQGAVGERSRKLITDRETEILRHVQAGKSNHEIAQLLYISPLTVKNHIQKILKKLDVNNRAHAVAKAMALKITL,not soluble
